This experiment has as its target GST-tagged βI spectrin N-terminal fragment, residues 1 to 301 (UniProt P11277). Briefly: pull-down.
Sequence of UniProt P11277 (P11277 1-301): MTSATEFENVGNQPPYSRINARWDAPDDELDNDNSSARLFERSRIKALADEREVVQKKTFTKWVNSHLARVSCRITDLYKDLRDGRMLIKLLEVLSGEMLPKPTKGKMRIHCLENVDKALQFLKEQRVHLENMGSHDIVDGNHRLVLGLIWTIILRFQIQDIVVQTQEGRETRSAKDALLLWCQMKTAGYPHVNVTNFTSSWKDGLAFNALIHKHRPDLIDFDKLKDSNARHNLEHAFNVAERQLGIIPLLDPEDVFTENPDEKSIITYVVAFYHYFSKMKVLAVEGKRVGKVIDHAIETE

Substance “His-tagged 4.1R-S312A, phosphorylated in vitro by the catalytic subunit of PKC (natural protein)” gave a reduction of binding against the unphosphorylated protein of 30%.
As for “His-tagged 4.1R-S331A, phosphorylated in vitro by the catalytic subunit of PKC (natural protein)”, the figure is 30%.

The values above are taken from article PMC4409870.
